# From the PETadex activity labels
# B1: unnamed (protein)
# chain: MKFNLSEKWLIALLASSLSFNALAVGGGGDDDDPPSCETDCGYERGPDPTASSLEADDGPYNVSTINVSSFVSGFGGGTIHYPRGTSGTMGAIAVVPGFVSSESDIIWWGSRIASHGFVVITIDTNSGFDQPDSRANQLSAALDYVIDESDSSSSAISGMVDSSRLGVMGWSMGGGGSLKLATDRNLMAIIPQAPYYSGFNDFDEITTPTLIIACENDAVAPVSSHASSFYYDIPSSTDKAFLEINNGSHYCGNTGNANEDILGKYGVAWMKRFIDLDQRYDQFLCGPNHDAPYAISEYRDTCN
# B2: unnamed (protein)
# chain: MVGYLEAVANYFPDTKWANYTTGYDGGTGGQTGFYNVMLQNSPLGALSWWNASCEFHDVMVEQAADTAARVPSNYRYYIGAGSAHTMYGSDKVYSDQSGGESQTILDWVNDMLAFDPAAADPGAPSWQSVECDDCEIVLPGDPLPRSLPTAPFALDIAGNPVIRCPPFPRGPDPTPAALEADLGPFPVRSYRPFFTPGFGAGTIWYPANPNPGPFAVIAVSPGFRAPESTMAWVGPRLASNGFIVITISTQSPFDNPTSRAKQLMAALRLVAAEGRRPSPIIGRVDGDRTGLIGHSMGGGGSLIAARDNPSVDAIIPLAPWNSPAKDFSAVEAASLIVACERDEIARVSQHAKPFYDSIPAADVNKAFLEFRGADHLCVMVGNDHYATLGKYIVAWMKAFLDSDTRYDEYLCG
# B3: unnamed (protein)
# chain: MTVCKLRMFTAQKHPVTNKIFGGSSMSSRKQDLRLRQLLYCLLLSTALGGAVVHAQTAPATIAQEAFNNGFGIFTAAGSATANGQAVLAGTFGGTDGSITSSPISTQGFSNITVSFDRTTVGLDNGEAGVAEFSVAGGAFTAIESAQTASGRMSFALAASAANQAQLRLRFRVVASRANETYSVDNVLVQGVAAGAQPPPPDPQPTNNPFQRGPTPSAATLEAAQGPFAVATTTVPNPSGFGAGTIYFPTSTTEGPFAAVSIAPGFSERQANVNWWGPRLASNGFVVVVIDTNSTSDAPASRATQLVAALRQVVTLSGTSGSPVFNKVDGNRLGVMGHSLGGGGTLIAAQNNPTLKAAIPFAPFNNDTNFSSVVVPTLIIACENDNVAPVADHASPFYNSFAASLDKAFLEIAGGSHSCANSGNNNMPILGKYGVSWMKLFMDNDTRYSPFLCGAPHQADLSGTQISEYRESCP
# B4: unnamed (protein)
# chain: MANPYERGPNPTDALLEASSGPFSVSEENVSRLSASGFGGGTIYYPRENNTYGAVAISPGYTGTEASIAWLGERIASHGFVVITIDTITTLDQPDSRAEQLNAALNHMINRASSTVRSRIDSSRLAVMGHSMGGGGTLRLASQRPDLKAAIPLTPWHLNKNWSSVTVPTLIIGADLDTIAPVATHAKPFYNSLPSSISKAYLELDGATHFAPNIPNKIIGKYSVAWLKRFVDNDTRYTQFLCPGPRDGLFGEVEEYRSTCPF
# B5: unnamed (protein)
# chain: MKIVPPKPFFFEAGERAVLLLHGFTGNSADVRMLGRFLESKGYTCHAPIYKGHGVPPEELVHTGPDDWWQDVMNGYEFLKNKGYEKIAVAGLSLGGVFSLKLGYTVPIEGIVTMCAPMYIKSEETMYEGVLEYAREYKKREGKSEEQIEQEMEKFKQTPMKTLKALQELIADVRDHLDLIYAPTFVVQARHDEMINPDSANIIYNEIESPVKQIKWYEQSGHVITLDQEKDQLHEDIYAFLESLDW
# B6: unnamed (protein)
# chain: MKTSNSRRRRLAVAAGALLLAAAAHAQTNPYQKGPDPTSASLEATAGPFAVSTTSVSSSASGFGGGTIYYPTTAGSYGAIAISPGFTATQSSIAWLGRRLASHGFVVITIDTNSTLDQPASRATQLMAALNYVVNSSSSTVRSRVDANRLGVAGHSMGGGGTLIAARDNPTLKAAVPLTPWNTTKNFSSVTVPTLIIGAENDTVAPVSSHAIPFYNSLPSSTDKAYAELNGASHFAPNSSNTPIGKYSVAWMKRFVDNDTRYSPFLCGAPHTAYATSSAVSDYRSTCPY
# B7: unnamed (protein)
# chain: MNFPRASRLMQAAVLGGLMAVSAAATAQTNPYARGPNPTAASLEASAGPFTVRSFTVSRPSGYGAGTVYYPTNAGGTVGAIAIVPGYTARQSSIKWWGPRLASHGFVVITIDTNSTLDQPSSRSSQQMAALRQVASLNGTSSSPIYGKVDTARMGVMGWSMGGGGSLISAANNPSLKAAAPQAPWDSSTNFSSVTVPTLIFACENDSIAPVNSSALPIYDSMSRNAKQFLEINGGSHSCANSGNSNQALIGKKGVAWMKRFMDNDTRYSTFACENPNSTRVSDFRTANCS
# B8: unnamed (protein)
# chain: MLALRTSFPRVLTRLLAASLATGLVAQAQAAGHERGPAPTAASLEAEAGPFQVASTVLGAPVGYKGGTVFYPKGPGPFALVAFAPGFIETQSWNAWWAKYLASHGFVVVNIDTKSTLAFPPARQREQLAALKDVIQRSHTRGTPFYGLVDATRLGAMGHSMGGGATLELARDTPHIKAIVPMAPFQTTGTDYSRLTVPTLILTCKGDIVASAKSHAAPIYDSLPSSLDKAHVELAGGGGHPCTTSLGTSAEVKKVAAKYGVSWLKRFLDEDTRYSPFLCGAEHEASLKTSVVSAYQGNCP
# B9: unnamed (protein)
# chain: MDKTRLFSTLSMVTSALLFSISVSAGKPSKGGDEPAPEPAACISDTDITSAALSSTGSSGPFTVSTKDVSRWSASGFGGGTIHYPTGAGDCGPIGGIAVVPGYVSYEASIKWWGPRLASWGFVVITINTNSIYDQPDSRATQLSAALDHIINDSTVGSMVDSSRLGAIGWSMGGGGALKLATDRSEVKAIIPQAPWYSGRYGRMKTPAFMIGCENDFVAPTSNHVDVFYANASGPKMKIEVNNGDHSCANSGYNETLLGKPGIAWMQRYIHGDTRFNQFLCGNENYGSSNSVSAYDFESC
# B10: unnamed (protein)
# chain: MERTVVETRYGRLRGEMNEGVFVWKGIPYAKAPVGERRFLPPEPPDAWDGVREATSFGPVVMQPSDPIFSGLLGRMSEAPSEDGLYLNIWSPAADGKKRPVLFWIHGGAFLFGSGSSPWYDGTAFAKHGDVVVVTINYRMNVFGFLHLGDSFGEAYAQAGNLGILDQVAALRWVKENIAAFGGDPDNITIFGESAGAASVGVLLSLPEASGLFRRAMLQSGSGSLLLRSPETAMAMTERILDKAGIRPGDRERLLSIPAEELLRAALSLGPGVMYGPVVDGRVLRRHPIEALRYGAASGIPILIGVTKDEYNLFTLTDPSWTKLGEKELLDRINREVGPVPEEAIRYYKETAEPSAPTWQTWLRIMTYRVFVEGMLRTADAQAAQGADVYMYRFDYETPVFGGQLKACHALELPFVFHNLHQPGVANFVGNRPEREAIANEMHYAWLSFARTGDPNGAHLPEAWPAYTNERKAAFVFSAASHVEDDPFGRERAAWQGR
# B11: unnamed (protein)
# chain: MFNQIGKKSALSLMAAGSLMFSATALAIGGGGSGGGNNGGGGGCEADCGYERGPDPSVSLLEASTGPFSVRTSNVSSSVRGFGGGTIHYPTNTTGTMAAIVVIPGFVSPESSIAWWGPKLASHGFVVMTIGTNSGFDQPASRASQLNNALDYLIEQNGSSRSPINGMIDTDRLGVMGWSMGGGGTLRVATEGRVSAAIPLAPWDSSSSQFRSIDTPTLIFACENDSTAPVRSHADPFYDAIPDSTAKAFVELDGGGHTCANGSSGFGGSYNDVLSRLGVSWMKLHLDKDQRYNQFVCGPNHESDRSISEYRGTCPY
# B12: unnamed (protein)
# chain: MNNNKMPKSALSLLVAGALFLSATAMAANPVPPPTNPGNPDSGYQRGPNPSVSMLEARNGPFSVRTTNVSSFTSGFGGGTIHYPTNTTGTMAAIVVIPGFVSAESSIEWWGPKLASHGFVVMTIDTNSGFDQPPSRARQINAALDYLIDQNNARGSAVSGMIDPNRLGVVGWSMGGGGSLRVAAEGRLDAVIPLAPWDTTNFRSVNTPALIFACESDTIAPVRSHASPFYNQIPASTPKAFVEISRGSHYCANGGGSNDAVLSRLGVSWMKVHLDKDQRYQQFICGPRHESDRSISEYRGN
# B13: unnamed (protein)
# chain: MFIMIKKSELAKAIIVTGALVFSIPTLAEVTLSETTVSSIKSEATVSSTKKALPATPSDCIADSKITAVALSDTRDNGPFSIRTKRISRQSAKGFGGGTIHYPTNASGCGLLGAIAVVPGYVSYENSIKWWGPRLASWGFVVITINTNSIYDDPDSRAAQLNAALDNMIADDTVGSMIDPKRLGAIGWSMGGGGALKLATERSTVRAIMPLAPYHDKSYGEVKTPTLVIACEDDRIAETKKYANAFYKNAIGPKMKVEVNNGSHFCPSYRFNEILLSKPGIAWMQRYINNDTRFDKFLCANENYSKSPRISAYDYKDCP
# B14: unnamed (protein)
# chain: MVVIRTTNTTPTLQVTLMTTISVRKSALFVFAATAVLFSMSAFSFNPPTEPEPDPGPSPCQTDCGFTRGPNPTASYLEASTGPYAVRTTDVSRYVSGFGGGTIHYPAGTTGEMGAIAIVPGFFASESSIQWWGPRLASHGFVVITISTNSVFDQPGSRSAQLENALDYVISQSNSPTSGILGMVDSSRVGAMGWSMGGGGTLRLASSERLSAAIPLAPWNTGSNNFDQIDTPTLIFACENDGTAPVSQHASPFYNRIPGATAKAYFEINNGQHSCANGGGSNGGLLGKYGVSWMKLHIDKDDRYNRFLCGPNHAANSAISEYRGTCPY
# B15: unnamed (protein)
# chain: MKNAPIRSVLATCLVAAAASALAQTTAPTSASLNASAGPLSVSTASVTAPRGFGGGTIYYPTTQARYGVIAISPGFTATQISIAWLGRRIATHGFVVITLNTLTTLDQPDSRANQLMAALNHVINSSSSAVKARIDTSRLAVAGHSMGGGGALIAARDNPTLKASYPLTPWNINSAFTTVRVPTMIVGADGDTIAPVGTHARPFYAALPGATSKAYGELNGATHFSPNSTNTPIGRYGVAWMKRFLDGDTRYSTFLCGTEHTRYATALVFDRYNQNCPY
# Substrate: BHET
# Conditions: 120 h; part of the chain shown
row,Protein,plate clearing
1,B1,not clears the plate
2,B3,clears the plate (z > 3 vs empty vector)
3,B4,clears the plate (z > 3 vs empty vector)
4,B7,clears the plate (z > 3 vs empty vector)
5,B8,not clears the plate
6,B9,not clears the plate
7,B12,not clears the plate

# Same assay, conditions: 120 h
row,Protein,plate clearing
1,B2,not clears the plate
2,B6,not clears the plate
3,B11,not clears the plate
4,B13,not clears the plate
5,B14,not clears the plate
6,B15,not clears the plate

# Substrate: p-NP-C6
# Conditions: pH 8.5; 60 °C; part of the chain shown
Protein,Km [µM],kcat [s⁻¹],kcat/Km [M⁻¹ s⁻¹]
B5,2.16,38,1.76e+07

# Same assay, conditions: pH 8.5; 60 °C
Protein,Km [µM],kcat [s⁻¹],kcat/Km [M⁻¹ s⁻¹]
B10,0.5,39.8,7.95e+07
